Ten molecules from US20120172293A1 (Takeda / Millennium, published 2012) can be followed below.

Non-standard residues stand in square brackets, D forms with d. *: point of attachment. Lys(Me2) = CN(C)CCCC[C@H](N)C(=O)O; tBuAla = CC(C)(C)C[C@H](N)C(=O)O; 4Pal = N[C@@H](Cc1ccncc1)C(=O)O; Cha = N[C@@H](CC1CCCCC1)C(=O)O; d(αMeP) = C[C@]1(C(=O)O)CCCN1; αMeP = C[C@@]1(C(=O)O)CCCN1; Isobutyryl = CC(C)C(=O)*; Iva = CC[C@](C)(N)C(=O)O; Nle = CCCC[C@H](N)C(=O)O; Dab = NCC[C@H](N)C(=O)O; dAze = O=C(O)[C@H]1CCN1; Aib = CC(C)(N)C(=O)O; GABA = NCCCC(=O)O

The labels stand for the following.
B1: Ac-[Glu23, D-Pro24, Pya(4)26, Cha27,36, Leu(Me)28, Lys30, Aib31]-PYY(23-36) (peptide)
peptide: Ac-E[dP]R[4Pal][Cha][tBuAla]NK[Aib]TRQR[Cha]-NH2
SMILES: CC(=O)N[C@@H](CCC(=O)O)C(=O)N1CCC[C@@H]1C(=O)N[C@@H](CCCNC(=N)N)C(=O)N[C@@H](Cc1ccncc1)C(=O)N[C@@H](CC1CCCCC1)C(=O)N[C@@H](CC(C)(C)C)C(=O)N[C@@H](CC(N)=O)C(=O)N[C@@H](CCCCN)C(=O)NC(C)(C)C(=O)N[C@H](C(=O)N[C@@H](CCCNC(=N)N)C(=O)N[C@@H](CCC(N)=O)C(=O)N[C@@H](CCCNC(=N)N)C(=O)N[C@@H](CC1CCCCC1)C(N)=O)[C@@H](C)O
B2: Ac-[D-Aze(2)24, Cha27,28,36, Aib31]-PYY(23-36) (peptide)
peptide: Ac-S[dAze]RH[Cha][Cha]NL[Aib]TRQR[Cha]-NH2
SMILES: CC(=O)N[C@@H](CO)C(=O)N1CC[C@@H]1C(=O)N[C@@H](CCCNC(=N)N)C(=O)N[C@@H](Cc1c[nH]cn1)C(=O)N[C@@H](CC1CCCCC1)C(=O)N[C@@H](CC1CCCCC1)C(=O)N[C@@H](CC(N)=O)C(=O)N[C@@H](CC(C)C)C(=O)NC(C)(C)C(=O)N[C@H](C(=O)N[C@@H](CCCNC(=N)N)C(=O)N[C@@H](CCC(N)=O)C(=O)N[C@@H](CCCNC(=N)N)C(=O)N[C@@H](CC1CCCCC1)C(N)=O)[C@@H](C)O
B3: Ac-[Glu23, D-Pro24, Nle25, Pya(4)26, Cha27,28,36, Lys30, Aib31]-PYY(23-36) (peptide)
peptide: Ac-E[dP][Nle][4Pal][Cha][Cha]NK[Aib]TRQR[Cha]-NH2
SMILES: CCCC[C@H](NC(=O)[C@H]1CCCN1C(=O)[C@H](CCC(=O)O)NC(C)=O)C(=O)N[C@@H](Cc1ccncc1)C(=O)N[C@@H](CC1CCCCC1)C(=O)N[C@@H](CC1CCCCC1)C(=O)N[C@@H](CC(N)=O)C(=O)N[C@@H](CCCCN)C(=O)NC(C)(C)C(=O)N[C@H](C(=O)N[C@@H](CCCNC(=N)N)C(=O)N[C@@H](CCC(N)=O)C(=O)N[C@@H](CCCNC(=N)N)C(=O)N[C@@H](CC1CCCCC1)C(N)=O)[C@@H](C)O
B4: Ac-[D-Pro24, Iva26, Cha27,28,36, Aib31]-PYY(23-36) (peptide)
peptide: Ac-S[dP]R[Iva][Cha][Cha]NL[Aib]TRQR[Cha]-NH2
SMILES: CC[C@](C)(NC(=O)[C@H](CCCNC(=N)N)NC(=O)[C@H]1CCCN1C(=O)[C@H](CO)NC(C)=O)C(=O)N[C@@H](CC1CCCCC1)C(=O)N[C@@H](CC1CCCCC1)C(=O)N[C@@H](CC(N)=O)C(=O)N[C@@H](CC(C)C)C(=O)NC(C)(C)C(=O)N[C@H](C(=O)N[C@@H](CCCNC(=N)N)C(=O)N[C@@H](CCC(N)=O)C(=O)N[C@@H](CCCNC(=N)N)C(=O)N[C@@H](CC1CCCCC1)C(N)=O)[C@@H](C)O
B5: Ac-[D-Pro24, Cha27,28,36, Lys(Me2)30, Aib31]-PYY(23-36) (peptide)
peptide: Ac-S[dP]RH[Cha][Cha]N[Lys(Me2)][Aib]TRQR[Cha]-NH2
SMILES: CC(=O)N[C@@H](CO)C(=O)N1CCC[C@@H]1C(=O)N[C@@H](CCCNC(=N)N)C(=O)N[C@@H](Cc1c[nH]cn1)C(=O)N[C@@H](CC1CCCCC1)C(=O)N[C@@H](CC1CCCCC1)C(=O)N[C@@H](CC(N)=O)C(=O)N[C@@H](CCCCN(C)C)C(=O)NC(C)(C)C(=O)N[C@H](C(=O)N[C@@H](CCCNC(=N)N)C(=O)N[C@@H](CCC(N)=O)C(=O)N[C@@H](CCCNC(=N)N)C(=O)N[C@@H](CC1CCCCC1)C(N)=O)[C@@H](C)O
B6: Ac-[D-Pro24, Cha27,28,36, Dab30, Aib31]-PYY(23-36) (peptide)
peptide: Ac-S[dP]RH[Cha][Cha]N[Dab][Aib]TRQR[Cha]-NH2
SMILES: CC(=O)N[C@@H](CO)C(=O)N1CCC[C@@H]1C(=O)N[C@@H](CCCNC(=N)N)C(=O)N[C@@H](Cc1c[nH]cn1)C(=O)N[C@@H](CC1CCCCC1)C(=O)N[C@@H](CC1CCCCC1)C(=O)N[C@@H](CC(N)=O)C(=O)N[C@@H](CCN)C(=O)NC(C)(C)C(=O)N[C@H](C(=O)N[C@@H](CCCNC(=N)N)C(=O)N[C@@H](CCC(N)=O)C(=O)N[C@@H](CCCNC(=N)N)C(=O)N[C@@H](CC1CCCCC1)C(N)=O)[C@@H](C)O
B7: Ac-[D-αMePro24, Cha27,28,36, Aib31]-PYY(23-36) (peptide)
peptide: Ac-S[d(αMeP)]RH[Cha][Cha]NL[Aib]TRQR[Cha]-NH2
SMILES: CC(=O)N[C@@H](CO)C(=O)N1CCC[C@]1(C)C(=O)N[C@@H](CCCNC(=N)N)C(=O)N[C@@H](Cc1c[nH]cn1)C(=O)N[C@@H](CC1CCCCC1)C(=O)N[C@@H](CC1CCCCC1)C(=O)N[C@@H](CC(N)=O)C(=O)N[C@@H](CC(C)C)C(=O)NC(C)(C)C(=O)N[C@H](C(=O)N[C@@H](CCCNC(=N)N)C(=O)N[C@@H](CCC(N)=O)C(=O)N[C@@H](CCCNC(=N)N)C(=O)N[C@@H](CC1CCCCC1)C(N)=O)[C@@H](C)O
B8: Ac-[αMePro24, Cha27,28,36, Aib31]-PYY(23-36) (peptide)
peptide: Ac-S[αMeP]RH[Cha][Cha]NL[Aib]TRQR[Cha]-NH2
SMILES: CC(=O)N[C@@H](CO)C(=O)N1CCC[C@@]1(C)C(=O)N[C@@H](CCCNC(=N)N)C(=O)N[C@@H](Cc1c[nH]cn1)C(=O)N[C@@H](CC1CCCCC1)C(=O)N[C@@H](CC1CCCCC1)C(=O)N[C@@H](CC(N)=O)C(=O)N[C@@H](CC(C)C)C(=O)NC(C)(C)C(=O)N[C@H](C(=O)N[C@@H](CCCNC(=N)N)C(=O)N[C@@H](CCC(N)=O)C(=O)N[C@@H](CCCNC(=N)N)C(=O)N[C@@H](CC1CCCCC1)C(N)=O)[C@@H](C)O
B9: Isobutanoyl-[Glu23, D-Pro24, Pya(4)26, Cha27,36, Leu(Me)28, Lys30, Aib31]-PYY(23-36) (peptide)
peptide: Isobutyryl-E[dP]R[4Pal][Cha][tBuAla]NK[Aib]TRQR[Cha]-NH2
SMILES: CC(C)C(=O)N[C@@H](CCC(=O)O)C(=O)N1CCC[C@@H]1C(=O)N[C@@H](CCCNC(=N)N)C(=O)N[C@@H](Cc1ccncc1)C(=O)N[C@@H](CC1CCCCC1)C(=O)N[C@@H](CC(C)(C)C)C(=O)N[C@@H](CC(N)=O)C(=O)N[C@@H](CCCCN)C(=O)NC(C)(C)C(=O)N[C@H](C(=O)N[C@@H](CCCNC(=N)N)C(=O)N[C@@H](CCC(N)=O)C(=O)N[C@@H](CCCNC(=N)N)C(=O)N[C@@H](CC1CCCCC1)C(N)=O)[C@@H](C)O
B10: Ac-[GABA24, Cha27,28,36, Aib31]-PYY(23-36) (peptide)
peptide: Ac-S[GABA]RH[Cha][Cha]NL[Aib]TRQR[Cha]-NH2
SMILES: CC(=O)N[C@@H](CO)C(=O)NCCCC(=O)N[C@@H](CCCNC(=N)N)C(=O)N[C@@H](Cc1c[nH]cn1)C(=O)N[C@@H](CC1CCCCC1)C(=O)N[C@@H](CC1CCCCC1)C(=O)N[C@@H](CC(N)=O)C(=O)N[C@@H](CC(C)C)C(=O)NC(C)(C)C(=O)N[C@H](C(=O)N[C@@H](CCCNC(=N)N)C(=O)N[C@@H](CCC(N)=O)C(=O)N[C@@H](CCCNC(=N)N)C(=O)N[C@@H](CC1CCCCC1)C(N)=O)[C@@H](C)O

The target of the first experiment is human Y2 receptor (human) (UniProt P49146). Description: RBA: [125I]-PYY displacement, hY2R/CHO membranes.
Chain of human Y2 receptor (human) (P49146 whole entry): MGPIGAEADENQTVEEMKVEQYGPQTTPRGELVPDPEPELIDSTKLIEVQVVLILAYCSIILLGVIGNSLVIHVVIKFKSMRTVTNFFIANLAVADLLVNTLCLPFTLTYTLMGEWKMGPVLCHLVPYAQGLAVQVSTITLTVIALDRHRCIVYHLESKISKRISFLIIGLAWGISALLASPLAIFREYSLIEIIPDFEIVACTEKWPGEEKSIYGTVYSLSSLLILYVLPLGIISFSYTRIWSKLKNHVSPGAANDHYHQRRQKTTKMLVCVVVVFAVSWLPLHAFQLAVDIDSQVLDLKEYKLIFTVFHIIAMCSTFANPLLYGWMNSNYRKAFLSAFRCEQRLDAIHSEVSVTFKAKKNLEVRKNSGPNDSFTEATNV
On to B1, for which the IC50 Ratio (vs PYY(3-36)) was found to be 0.48.

B2: the IC50 Ratio (vs PYY(3-36)) was determined as 1.7.

In the case of B3, the IC50 Ratio (vs PYY(3-36)) amounted to 2.3.

On to B4, for which the IC50 Ratio (vs PYY(3-36)) was 5.2.

On to B5, for which the IC50 Ratio (vs PYY(3-36)) is 0.8.

As to B6, the IC50 Ratio (vs PYY(3-36)) came out at 2.6.

Take B7: the IC50 Ratio (vs PYY(3-36)) is 4.5.

With B8, the IC50 Ratio (vs PYY(3-36)) amounted to 2.8.

B9: the IC50 Ratio (vs PYY(3-36)) was determined as 0.43.

For the molecule B10, the IC50 Ratio (vs PYY(3-36)) turned out to be 5.8.

The target is the same in the next experiment. Description: cell-based or functional assay.
As to B1, the GBA EC50 Ratio (vs PYY(3-36)), [35S]GTPγS came to 0.86.

On to B2, for which the GBA EC50 Ratio (vs PYY(3-36)), [35S]GTPγS is 1.3.

Regarding B3, the GBA EC50 Ratio (vs PYY(3-36)), [35S]GTPγS amounted to 1.3.

With B4, the GBA EC50 Ratio (vs PYY(3-36)), [35S]GTPγS amounted to 4.2.

In the case of B5, the GBA EC50 Ratio (vs PYY(3-36)), [35S]GTPγS was determined as 0.7.

Regarding B6, the GBA EC50 Ratio (vs PYY(3-36)), [35S]GTPγS was 1.6.

In the case of B7, the GBA EC50 Ratio (vs PYY(3-36)), [35S]GTPγS was found to be 2.6.

In the case of B8, the GBA EC50 Ratio (vs PYY(3-36)), [35S]GTPγS was 1.3.

With B9, the GBA EC50 Ratio (vs PYY(3-36)), [35S]GTPγS is 0.88.

B10: the GBA EC50 Ratio (vs PYY(3-36)), [35S]GTPγS amounted to 3.
